Each block holds one binder with its values, some of them ahead of it.
B2: S. cerevisiae Arf1 (residues 18–181) I43E with a C-terminal GST tag (domain or fragment, UniProt P11076 18-181, looked up)
chain: MRILMVGLDGAGKTTVLYKLKLGEVETTIPTIGFNVETVQYKNISFTVWDVGGQDRIRSLWRHYYRNTEGVIFVVDSNDRSRIGEAREVMQRMLNEDELRNAAWLVFANKQDLPEAMSAAEITEKLGLHSIRNRPWFIQATCATSGEGLYEGLEWLSNSLKNST

Assays:
[1] = biological target: full-length βδ/γζ-COP complex (R. norvegicus | B. taurus, UniProt P23514 1-953; P53619 1-511; P53620 1-874; P35604 1-177); assay: GTPase fluorescence assay
full-length γζ-COP dimer = biological target: T1, full-length γζ-COP dimer (B. taurus, UniProt P53620 1-874; P35604 1-177); assay: pull-down
T1 sequence (looked up) 1: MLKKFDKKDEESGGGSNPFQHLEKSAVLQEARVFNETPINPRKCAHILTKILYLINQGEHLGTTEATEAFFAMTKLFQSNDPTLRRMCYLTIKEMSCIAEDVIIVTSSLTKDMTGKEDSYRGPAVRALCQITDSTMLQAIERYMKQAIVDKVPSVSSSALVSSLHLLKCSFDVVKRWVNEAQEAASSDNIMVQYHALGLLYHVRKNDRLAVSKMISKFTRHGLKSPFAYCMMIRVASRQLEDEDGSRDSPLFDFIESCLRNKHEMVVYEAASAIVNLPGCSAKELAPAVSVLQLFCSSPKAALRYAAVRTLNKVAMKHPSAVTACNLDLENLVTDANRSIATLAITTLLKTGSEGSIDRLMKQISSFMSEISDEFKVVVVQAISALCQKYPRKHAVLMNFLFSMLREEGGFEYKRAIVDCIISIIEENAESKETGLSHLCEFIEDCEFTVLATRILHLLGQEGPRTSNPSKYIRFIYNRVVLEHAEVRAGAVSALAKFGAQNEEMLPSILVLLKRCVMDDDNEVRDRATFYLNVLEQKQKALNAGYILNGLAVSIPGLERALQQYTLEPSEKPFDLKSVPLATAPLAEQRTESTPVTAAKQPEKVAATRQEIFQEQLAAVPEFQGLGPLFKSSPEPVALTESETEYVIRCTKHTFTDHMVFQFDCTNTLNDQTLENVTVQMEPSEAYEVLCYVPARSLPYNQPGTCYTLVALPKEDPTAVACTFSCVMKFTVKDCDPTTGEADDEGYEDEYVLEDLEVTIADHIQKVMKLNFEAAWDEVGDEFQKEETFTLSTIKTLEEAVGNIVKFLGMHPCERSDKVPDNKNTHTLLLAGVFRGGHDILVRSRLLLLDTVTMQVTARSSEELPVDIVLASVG
T1 sequence (looked up) 2: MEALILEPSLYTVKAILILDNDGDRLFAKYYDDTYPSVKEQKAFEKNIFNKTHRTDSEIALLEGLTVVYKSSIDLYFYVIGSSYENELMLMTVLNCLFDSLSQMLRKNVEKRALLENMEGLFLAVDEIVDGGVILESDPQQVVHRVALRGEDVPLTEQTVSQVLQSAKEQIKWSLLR

[2] = biological target: T2, γζ-COP core complex (bovine γ-COP 1–355 plus ζ-COP 1–153) (B. taurus, UniProt P53620 1-355; P35604 1-153); assay: crystal structure
T2 sequence (looked up) 1: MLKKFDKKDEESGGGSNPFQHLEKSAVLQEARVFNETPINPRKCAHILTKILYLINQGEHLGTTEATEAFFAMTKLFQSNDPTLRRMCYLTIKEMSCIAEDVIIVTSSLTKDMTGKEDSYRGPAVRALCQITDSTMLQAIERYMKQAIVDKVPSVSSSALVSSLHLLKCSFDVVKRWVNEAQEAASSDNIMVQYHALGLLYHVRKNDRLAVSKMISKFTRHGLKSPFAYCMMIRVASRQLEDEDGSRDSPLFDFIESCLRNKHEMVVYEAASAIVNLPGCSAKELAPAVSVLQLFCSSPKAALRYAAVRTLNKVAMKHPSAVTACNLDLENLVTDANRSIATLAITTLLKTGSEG
T2 sequence (looked up) 2: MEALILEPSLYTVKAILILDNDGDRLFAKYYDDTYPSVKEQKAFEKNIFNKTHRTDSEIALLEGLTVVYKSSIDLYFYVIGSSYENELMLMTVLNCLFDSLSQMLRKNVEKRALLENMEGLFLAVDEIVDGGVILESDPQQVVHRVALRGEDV

[3] = biological target: B2; assay: pull-down

binding result [2]: binds
B3: S. cerevisiae Arf1 (residues 18–181) complexed with GppNHp (domain or fragment, UniProt P11076 18-181, looked up)
chain: MRILMVGLDGAGKTTVLYKLKLGEVITTIPTIGFNVETVQYKNISFTVWDVGGQDRIRSLWRHYYRNTEGVIFVVDSNDRSRIGEAREVMQRMLNEDELRNAAWLVFANKQDLPEAMSAAEITEKLGLHSIRNRPWFIQATCATSGEGLYEGLEWLSNSLKNST

percent binding capacity relative to wild-type Arf1 [3]: 90%
B4: full-length βδ-COP dimer (complex, R. norvegicus | B. taurus)
chain 1: MTAAENVCYTLINVPMDSEPPSEISLKNDLEKGDVKSKTEALKKVIIMILNGEKLPGLLMTIIRFVLPLQDHTIKKLLLVFWEIVPKTTPDGRLLHEMILVCDAYRKDLQHPNEFIRGSTLRFLCKLKEAELLEPLMPAIRACLEHRHSYVRRNAVLAIYTIYRNFENLIPDAPELIHDFLVNEKDASCKRNAFMMLIHADQDRALDYLSTCIDQVQTFGDILQLVIVELIYKVCHANPSERARFIRCIYNLLQSSSPAVKYEAAGTLVTLSSAPTAIKAAAQCYIDLIIKESDNNVKLIVLDRLVELKEHPAHERVLQDLVMDILRVLSTPDLEVRKKTLQLALDLVSSRNVEELVIVLKKEVIKTNNVSEHEDTDKYRQLLVRTLHSCSVRFPDMAANVIPVLMEFLSDSNEAAAADVLEFVREAIQRFDNLRMLIVEKMLEVFHAIKSVKIYRGALWILGEYCSTKEDIQSVMTEVRRSLGEIPIVESEIKKEAGELKPEEEITVGPVQKLVTEMGTYATQSALSSSRPTKKEEDRPPLRGFLLDGDFFVAASLATTLTKIALRYVALVQEKKKQNSFVAEAMLLMATILHLGKSSLPKKPITDDDVDRISLCLKVLSECSPLMNDIFNKECRQSLSQMLSAKLEEEKLSQKKESEKRNVTVQPDDPISFMQLTAKNEMNCKEDQFQLSLLAAMGNTQRKEAADPLASKLNKVTQLTGFSDPVYAEAYVHVNQYDIVLDVLVVNQTSDTLQNCTLELATLGDLKLVEKPSPLTLAPHDFANIKANVKVASTENGIIFGNIVYDVSGAASDRNCVVLSDIHIDIMDYIQPATCTDAEFRQMWAEFEWENKVTVNTNVTDLNDYLQHILKSTNMKCLTPEKALSGYCGFMAANLYARSIFGEDALANVSIEKPVHQGPDAAVTGHIRIRAKSQGMALSLGDKINLSQKKTSL
chain 2: MVLLAAAVCTKAGKAIVSRQFVEMTRTRIEGLLAAFPKLMNTGKQHTFVETESVRYVYQPMEKLYMVLITTKNSNILEDLETLRLFSRVIPEYCRALEENEISEHCFDLIFAFDEIVALGYRENVNLAQIRTFTEMDSHEEKVFRAVRETQEREAKAEMRRKAKELQQARRDAERQGKKAPGFGGFGSSTVSGGSTTSMITETIIETDKPKVAPAPARPSGPSKALKLGAKGKEVDNFVDKLKSEGENIISSNMGKRTSEATKVHAPPINMESVHMKIEEKITLTCGRDGGLQNMELHGMIMLRISDDKFGRIRLHVENEDKKGVQLQTHPNVDKKLFTAESLIGLKNPEKSFPVNSDVGVLKWRLQTTEESFIPLTINCWPSESGNGCDVNIEYELQEDNLELNDVVITIPLPSGVGAPVIGEIDGEYRHDSRRNTLEWCLPVIDAKNKSGSLEFSIAGQPNDFFPVQVSFISKKNYCNIQVTKVTQVDGNSPVRFSTETTFLVDKYEIL

Further lines, the binder ahead of its results:

B1: H. sapiens Arf1 (residues 18–181) (domain or fragment)
chain: not shown
Kd [1]: ~1000 nM

Binder: B2
binding result (full-length γζ-COP dimer): binds
